Laboratory results taken from patent EP4814009A1 (Medpacto Inc., dated 2026).

Target: T1, biotinylated TGF-β1 (R&D Systems, Catalog #NFTG0) (UniProt P01137 279-390, biotinylated (sites not given))
T1 construct: Detection reagent of the sandwich ELISA, 1:50 diluted in PBS
Assay: sandwich ELISA, simultaneous binding of EDB-FN-6x His (coated) and biotinylated TGF-β1

T1 sequence (P01137 279-390 limits assumed): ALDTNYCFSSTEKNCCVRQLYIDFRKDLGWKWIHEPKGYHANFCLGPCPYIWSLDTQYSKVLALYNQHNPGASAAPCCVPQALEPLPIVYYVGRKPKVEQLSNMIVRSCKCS

- binding result: binds
B1: Anti-EDB-FN scFv-TGFβ Trap (other)
chain: EVQLLESGGGLVQPGGSLRLSCAASGFTFSSFSMSWVRQAPGKGLEWVSSISGSSGTTYYADSVKGRFTISRDNSKNTLYLQMNSLRAEDTAVYYCAKPFPYFDYWGQGTLVTVSSGGGGSGGGGSGGGGSEIVLTQSPGTLSLSPGERATLSCRASQSVSSSFLAWYQQKPGQAPRLLIYYASSRATGIPDRFSGSGSGTDFTLTISRLEPEDFAVYYCQQTGRIPPTFGQGTKVEIKSSSSGSSSSGSSSSGIPPHVQKSVNNDMIVTDNNGAVKFPQLCKFCDVRFSTCDNQKSCMSNCSITSICEKPQEVCVAVWRKNDENITLETVCHDPKLPYHDFILEDAASPKCIMKEKKKPGETFFMCSCSSDECNDNIIFSEEYNTSNPD
notes: L19 scFv fused onto the TGFβ Trap without Fc; also called Anti-EDB-FN scFv-TGFβ Trap without Fc fusion
